# Measured values from IntAct's records for PubMed 12869544.
# B1: Translocase of chloroplast 33, chloroplastic (Arabidopsis thaliana (Mouse-ear cress)), O23680 (parent)
# chain: MGSLVREWVGFQQFPAATQEKLIEFFGKLKQKDMNSMTVLVLGKGGVGKSSTVNSLIGEQVVRVSPFQAEGLRPVMVSRTMGGFTINIIDTPGLVEAGYVNHQALELIKGFLVNRTIDVLLYVDRLDVYRVDELDKQVVIAITQTFGKEIWCKTLLVLTHAQFSPPDELSYETFSSKRSDSLLKTIRAGSKMRKQEFEDSAIAVVYAENSGRCSKNDKDEKALPNGEAWIPNLVKAITDVATNQRKAIHVDKKMVDGSYSDDKGKKLIPLIIGAQYLIVKMIQGAIRNDIKTSGKPL
# Variants of: B1
# Details: with tc159_arath TOC159, O81283
# Chain of tc159_arath TOC159, O81283 (O81283 whole entry): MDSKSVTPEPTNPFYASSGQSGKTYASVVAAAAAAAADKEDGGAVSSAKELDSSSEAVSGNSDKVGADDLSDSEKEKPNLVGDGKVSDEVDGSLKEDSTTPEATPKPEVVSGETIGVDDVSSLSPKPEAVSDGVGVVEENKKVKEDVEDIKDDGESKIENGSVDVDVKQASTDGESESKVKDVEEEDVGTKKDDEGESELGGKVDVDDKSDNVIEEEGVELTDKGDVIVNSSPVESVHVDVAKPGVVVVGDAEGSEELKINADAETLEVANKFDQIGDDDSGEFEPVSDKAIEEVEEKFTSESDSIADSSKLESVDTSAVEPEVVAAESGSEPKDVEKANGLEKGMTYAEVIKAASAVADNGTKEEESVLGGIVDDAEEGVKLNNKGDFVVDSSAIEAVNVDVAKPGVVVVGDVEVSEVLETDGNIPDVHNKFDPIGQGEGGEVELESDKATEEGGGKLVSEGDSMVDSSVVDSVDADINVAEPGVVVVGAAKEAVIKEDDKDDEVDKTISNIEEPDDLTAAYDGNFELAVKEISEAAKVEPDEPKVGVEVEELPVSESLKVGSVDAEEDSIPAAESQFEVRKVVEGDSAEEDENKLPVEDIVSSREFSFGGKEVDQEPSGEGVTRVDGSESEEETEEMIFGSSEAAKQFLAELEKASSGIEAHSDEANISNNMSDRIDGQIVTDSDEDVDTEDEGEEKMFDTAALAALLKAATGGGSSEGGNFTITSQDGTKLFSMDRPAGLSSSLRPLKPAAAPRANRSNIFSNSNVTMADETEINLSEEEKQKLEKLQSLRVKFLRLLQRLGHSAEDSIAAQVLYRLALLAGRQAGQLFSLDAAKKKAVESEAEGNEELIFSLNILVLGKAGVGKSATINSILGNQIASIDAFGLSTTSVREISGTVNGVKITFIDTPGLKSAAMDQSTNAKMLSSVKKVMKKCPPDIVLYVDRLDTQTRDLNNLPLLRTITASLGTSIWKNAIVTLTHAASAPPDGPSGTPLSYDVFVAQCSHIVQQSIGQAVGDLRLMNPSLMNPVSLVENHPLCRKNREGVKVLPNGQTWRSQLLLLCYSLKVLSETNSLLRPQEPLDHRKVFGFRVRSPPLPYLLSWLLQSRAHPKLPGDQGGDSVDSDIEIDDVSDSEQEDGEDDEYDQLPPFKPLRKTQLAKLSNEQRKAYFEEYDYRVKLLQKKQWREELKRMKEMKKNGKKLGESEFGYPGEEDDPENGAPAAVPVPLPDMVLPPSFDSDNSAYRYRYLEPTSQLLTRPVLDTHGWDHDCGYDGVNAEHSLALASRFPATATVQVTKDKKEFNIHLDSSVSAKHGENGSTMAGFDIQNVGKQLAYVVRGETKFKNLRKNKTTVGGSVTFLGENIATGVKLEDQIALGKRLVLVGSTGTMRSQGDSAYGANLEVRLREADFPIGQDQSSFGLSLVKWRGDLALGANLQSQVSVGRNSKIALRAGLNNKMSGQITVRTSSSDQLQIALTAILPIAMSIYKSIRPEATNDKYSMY
row,effect of a mutation on the interaction,Variant
1,decreasing interaction,R130A
